We go through one molecule from patent CN106866820A (AB-MAT MEDICINE TECH (SHANGHAI) CO LTD, dated 2017).

Experiment [1] addresses T1, 人角蛋白18(CK18), endogenous protein in PC9 cell lysate / membrane protein extract (human, UniProt P05783 2-430).
T1 construct: Endogenous protein in lysate or extract; also called 48KD条带
T1 sequence (looked up): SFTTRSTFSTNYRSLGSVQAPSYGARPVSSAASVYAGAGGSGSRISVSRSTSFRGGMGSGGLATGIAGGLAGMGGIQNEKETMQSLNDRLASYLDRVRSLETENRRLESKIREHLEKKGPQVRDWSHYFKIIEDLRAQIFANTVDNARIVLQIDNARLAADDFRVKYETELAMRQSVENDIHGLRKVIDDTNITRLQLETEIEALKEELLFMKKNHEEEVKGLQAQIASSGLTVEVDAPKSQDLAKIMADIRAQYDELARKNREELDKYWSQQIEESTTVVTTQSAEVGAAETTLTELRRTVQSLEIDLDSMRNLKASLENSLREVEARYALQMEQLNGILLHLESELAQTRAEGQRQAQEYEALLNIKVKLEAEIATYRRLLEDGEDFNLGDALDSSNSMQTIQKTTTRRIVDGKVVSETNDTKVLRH
Description: Western blot on PC9 whole-cell lysate, antibody diluted 1:1000 and 1:2000. A general note: In western blotting, separated proteins are transferred to a membrane and probed.

The target in experiment [2] is T2, 人角蛋白18(CK18), on PC9 human lung cancer cells (human, UniProt P05783 2-430).
T2 construct: whole, on cells; Endogenous CK18 on non-permeabilised PFA-fixed PC9 cells (IF) or live PC-9 cells (capture); also called human keratin 18; cytokeratin 18
T2 sequence (looked up): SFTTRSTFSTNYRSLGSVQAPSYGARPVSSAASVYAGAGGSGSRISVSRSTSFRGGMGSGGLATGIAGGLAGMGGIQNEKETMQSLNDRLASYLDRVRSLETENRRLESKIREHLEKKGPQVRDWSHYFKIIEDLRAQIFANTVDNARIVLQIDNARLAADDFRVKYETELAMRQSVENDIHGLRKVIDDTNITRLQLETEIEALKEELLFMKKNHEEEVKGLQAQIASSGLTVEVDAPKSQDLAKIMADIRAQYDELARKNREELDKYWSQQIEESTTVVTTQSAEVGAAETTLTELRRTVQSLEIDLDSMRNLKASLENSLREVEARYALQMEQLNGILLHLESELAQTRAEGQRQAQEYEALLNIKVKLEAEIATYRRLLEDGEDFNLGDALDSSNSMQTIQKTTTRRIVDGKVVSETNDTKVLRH
Description: immunofluorescence on PFA-fixed non-permeabilised PC9 cells, antibody 1:1000, FITC goat anti-mouse secondary.

B1: anti-CK18(克隆号1P1)抗体 (antibody, V domains shown)
VH: EVQLQESGPSLVKPSQTLSLTCSVTGDSFTSGYWNWIRKFPGNKLEYMGYISYSGNCYYNPSLKSRISITRDTSKNQYYLQMNSVTTEDTATYFCARASAYYYGSFYDYAMDYWGQGTSVTVSS
VL: DIVMTQSQKFMSTSVGDRVSITCKASQNVDTAVAWYQQKPGQSPKLLIYSASNRFPGVPDRFTGSGSGTDFTLTISNMQSEDLADYFCQQYSSYPFTFGSGTKLEIK
notes: also called anti-CK18 (clone 1P1); 克隆号1P1 anti-CK18抗体
As for B1, the binding result in experiment [1] and in experiment [2] was “binds” in each case.
